Assays:
[1] = biological target: T1, human Kell glycoprotein, K (KEL1) form (human, UniProt P23276 1-732); assay: flow cytometry, indirect immunofluorescence on K/K RBCs
T1 construct: whole, on cells; also called K form of the Kell glycoprotein; K/K RBCs
T1 sequence (looked up): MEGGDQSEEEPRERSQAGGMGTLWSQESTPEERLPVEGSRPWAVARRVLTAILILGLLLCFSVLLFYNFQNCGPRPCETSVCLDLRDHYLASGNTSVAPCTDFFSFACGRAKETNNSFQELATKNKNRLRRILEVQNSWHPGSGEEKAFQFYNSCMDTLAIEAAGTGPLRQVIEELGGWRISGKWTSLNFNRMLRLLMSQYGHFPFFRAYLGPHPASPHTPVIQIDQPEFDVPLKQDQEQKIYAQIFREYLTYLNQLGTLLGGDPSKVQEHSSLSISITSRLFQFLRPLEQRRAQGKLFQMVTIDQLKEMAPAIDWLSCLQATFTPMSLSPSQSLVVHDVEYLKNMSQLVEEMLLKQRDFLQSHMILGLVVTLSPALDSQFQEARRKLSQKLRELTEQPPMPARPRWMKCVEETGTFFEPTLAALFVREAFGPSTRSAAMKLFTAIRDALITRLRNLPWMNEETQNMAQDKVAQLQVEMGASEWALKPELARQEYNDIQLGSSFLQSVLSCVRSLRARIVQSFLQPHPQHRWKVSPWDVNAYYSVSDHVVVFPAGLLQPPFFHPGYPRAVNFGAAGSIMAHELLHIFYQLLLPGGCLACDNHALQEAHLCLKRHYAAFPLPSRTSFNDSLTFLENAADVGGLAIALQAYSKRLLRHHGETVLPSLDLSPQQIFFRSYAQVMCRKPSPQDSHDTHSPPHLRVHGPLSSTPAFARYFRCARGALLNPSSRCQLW
Protocol: (§1) The specificities of the antibodies are shown in FIGS. 7A, 7B, 8A, 8B, 9A-9C, and 10A-10I. The specificities of the antibodies were determined to be: PUMA1/2 (KEL1 or K), PUMA 3 (a common Kell epitope, PUMA 4 (KEL4 or Kp^b). Flow cytometry was utilized to test antibody specificity by indirect immunofluorescence, using the monocolonal antibodies as the primary reagent and a goat-anti-mouse antibody (conjugated to allophycocyanin) as a secondary antibody. Different target cells expressing different Kell variants were used to determine specificity. Targets included RBCs that phenotyped as homozygous for the 3 main antithetical antigens in the Kell system, K/K, k/k, Kp^b/Kp^b, Kp^a/Kp^a, Js^b/Js^b, Js^a/Js^a. Differential binding to such tarets tests specificity. In the case of PUMA ½, binding was only observed when K was present but not on k/k RBCs. In the case of PUMA 3, binding was observed on all RBCs regardless of phenotype for K/k, Kp^a/Kp^b, or Js^a/Js^b, thus indicating a common epitope outside these systems. However, PUMA 3 bound to only KELL glycoprotein transgenic murine RBCs and not wild-type murine RBCs; thus, the epitope recognized by PUMA 3 is on the KELL molecule, but not K/k, Kp^a/Kp^b, or Js^a/Js^b. For PUMA 4, binding was only observed when Kp^b was present but not on Kp^a/Kp^a RBCs.

[2] = biological target: T2, human Kell glycoprotein, k (KEL2) form (human, UniProt P23276 1-732); assay: flow cytometry, indirect immunofluorescence on k/k RBCs
T2 construct: also called k form; k/k RBCs
T2 sequence: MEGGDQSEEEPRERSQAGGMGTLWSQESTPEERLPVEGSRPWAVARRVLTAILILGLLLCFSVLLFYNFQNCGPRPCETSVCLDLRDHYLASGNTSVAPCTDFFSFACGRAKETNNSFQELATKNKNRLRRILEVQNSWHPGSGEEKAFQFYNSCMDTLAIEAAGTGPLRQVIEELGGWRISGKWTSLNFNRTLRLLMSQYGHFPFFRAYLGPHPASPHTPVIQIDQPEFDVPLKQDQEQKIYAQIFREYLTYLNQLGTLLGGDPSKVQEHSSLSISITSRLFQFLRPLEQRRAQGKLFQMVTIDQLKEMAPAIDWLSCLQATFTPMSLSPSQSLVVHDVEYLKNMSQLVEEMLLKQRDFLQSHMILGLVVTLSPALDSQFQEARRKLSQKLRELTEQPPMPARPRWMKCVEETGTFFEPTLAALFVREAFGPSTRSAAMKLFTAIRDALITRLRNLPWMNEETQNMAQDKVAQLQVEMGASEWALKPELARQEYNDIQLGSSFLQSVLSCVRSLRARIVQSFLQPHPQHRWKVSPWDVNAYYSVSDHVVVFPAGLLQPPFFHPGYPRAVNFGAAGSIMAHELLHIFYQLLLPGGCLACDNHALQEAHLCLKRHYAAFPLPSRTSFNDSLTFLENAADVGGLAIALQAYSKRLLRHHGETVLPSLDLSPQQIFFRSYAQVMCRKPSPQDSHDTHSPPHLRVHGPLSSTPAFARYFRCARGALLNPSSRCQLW
Protocol: as §1

[3] = biological target: T3, human Kell glycoprotein transgene (KEL1, Kp^b, Js^b variants) on murine RBCs (human, UniProt P23276 1-732); assay: flow cytometry, indirect immunofluorescence on transgenic murine RBCs
T3 construct: whole, on cells; also called KELL glycoprotein transgenic murine RBCs; KEL1+RBCs
T3 sequence (looked up): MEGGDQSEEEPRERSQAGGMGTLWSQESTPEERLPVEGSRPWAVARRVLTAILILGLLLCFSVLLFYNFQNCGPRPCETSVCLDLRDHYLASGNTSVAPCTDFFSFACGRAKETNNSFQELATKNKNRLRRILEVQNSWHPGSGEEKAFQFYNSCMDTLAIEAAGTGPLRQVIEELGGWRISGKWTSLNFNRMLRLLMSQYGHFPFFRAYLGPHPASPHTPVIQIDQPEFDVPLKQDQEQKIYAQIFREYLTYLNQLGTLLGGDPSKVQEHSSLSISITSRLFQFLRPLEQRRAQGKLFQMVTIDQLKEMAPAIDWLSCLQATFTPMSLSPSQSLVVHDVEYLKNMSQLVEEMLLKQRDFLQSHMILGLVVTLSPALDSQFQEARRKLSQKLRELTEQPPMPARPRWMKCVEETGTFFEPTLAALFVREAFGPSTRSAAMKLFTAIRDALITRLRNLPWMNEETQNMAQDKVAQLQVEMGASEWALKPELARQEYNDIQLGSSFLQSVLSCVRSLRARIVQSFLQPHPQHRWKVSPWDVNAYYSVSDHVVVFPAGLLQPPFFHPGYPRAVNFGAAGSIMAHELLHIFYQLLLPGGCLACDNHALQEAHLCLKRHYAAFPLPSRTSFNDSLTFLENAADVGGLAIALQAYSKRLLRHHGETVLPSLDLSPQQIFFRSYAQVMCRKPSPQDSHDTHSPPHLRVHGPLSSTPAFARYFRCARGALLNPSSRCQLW
Protocol: as §1

[4] = biological target: T1, human Kell glycoprotein, K (KEL1) form; assay: flow cytometry on RBCs (FIGS. 7A, 7B)
Protocol: as §1

[5] = biological target: T2, human Kell glycoprotein, k (KEL2) form; assay: flow cytometry, indirect immunofluorescence on RBCs
Protocol: as §1

[6] = biological target: T3, human Kell glycoprotein transgene …; assay: in vivo, passive immunization of mice and transfusion of KEL1+ RBCs
Protocol: The ability of PUMA1 to induce a HTR was tested by passive immunization of wild-type mice with PUMA1 (by intravenous tail-vein injection), followed by transfusion with murine KEL1+RBCs from KEL1 transgeneic mouse donors. Compared to a control group that got only PBS, PUMA1 caused a brisk clearance of KEL1+RBCs, after which, the surviving RBCs continued to circulate, as is typical of HTRs in both mice and also in humans (FIG. 13). Thus, PUMA1 specifically binds to KEL1 RBCs, in vivo, with sufficient activity to induce an HTR.

[7] = biological target: T4, human Kell glycoprotein, Kp^a (KEL3) form (human, UniProt P23276 1-732); assay: flow cytometry, indirect immunofluorescence on RBCs
T4 construct: whole, on cells; also called Kp^a/Kp^a RBCs
T4 sequence (looked up): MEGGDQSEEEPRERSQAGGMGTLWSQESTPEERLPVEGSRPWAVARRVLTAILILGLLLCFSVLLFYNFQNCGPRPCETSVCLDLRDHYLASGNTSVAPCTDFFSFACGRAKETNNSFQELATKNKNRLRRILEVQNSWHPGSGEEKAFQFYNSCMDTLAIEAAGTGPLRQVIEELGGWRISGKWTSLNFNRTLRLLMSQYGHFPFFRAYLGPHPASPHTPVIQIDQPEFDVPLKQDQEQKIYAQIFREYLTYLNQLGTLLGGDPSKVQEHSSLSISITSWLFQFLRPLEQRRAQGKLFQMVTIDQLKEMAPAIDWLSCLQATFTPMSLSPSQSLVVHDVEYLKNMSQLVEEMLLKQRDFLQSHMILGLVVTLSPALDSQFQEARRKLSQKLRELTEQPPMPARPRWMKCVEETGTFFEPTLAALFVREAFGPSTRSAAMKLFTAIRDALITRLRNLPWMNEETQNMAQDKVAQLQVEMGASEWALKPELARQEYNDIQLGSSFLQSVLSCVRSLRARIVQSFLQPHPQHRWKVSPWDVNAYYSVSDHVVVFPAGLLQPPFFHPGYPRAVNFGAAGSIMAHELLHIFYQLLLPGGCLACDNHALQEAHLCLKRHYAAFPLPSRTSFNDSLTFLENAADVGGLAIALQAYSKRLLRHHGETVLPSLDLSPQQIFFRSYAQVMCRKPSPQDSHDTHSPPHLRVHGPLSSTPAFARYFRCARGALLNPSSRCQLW
Protocol: as §1

B1: monoclonal antibody PUMA 3 (antibody, V domains shown)
VH: QVQLKESGPGLLAPSQSLSITCTVSGFSLTSYGVYWVRQPPGKGLEWLGIIWGDGSTNYQSVLRSRLSITKDDSKSQVFLKLNSLQTDDTATYYCAKRGDYDVAYWGQGTLVTVSA
VL: DIVLTQSPASLAVSLGQRAIISCKASQTVSEVGTSLMHWYQQRPGQQPKLLIYRTSNLEAGVPTRFSGSGSRTDFTLNIHPVEEDDAATYYCQQSREFPWTFGGGTRLEIK
notes: Mouse monoclonal antibody from hybridoma
[1]
  binding result: binds
[2]
  binding result: binds
[3]
  binding result: binds

B2: monoclonal antibody PUMA 1 (antibody, V domains shown)
VH: EVQLQQSGPELVKPGASVKMSCKASGYTFTDYYMKWVKQSHGKSLEWIGDLNPNNGDTFYNQKFKGKATLTVDKSSSTAYIQLNSLTSEDSAVYYCAREAGSSFGSSCNYWGQGTTLTVS
VL: SVVMTQTPKFLLVSAGDRVTITCKASQTVSKDVAWYQQQPGQSPKLLIYYASNRYTGVPDRFTGSGYGTDFTFTISTVQAEDLAVYFCQQDYSSPYTFGGGTKLEIK
notes: also called PUMA 2; Puma 2
[4]
  binding result: binds
[5]
  binding result: no binding
[6]
  binding result: binds

B3: monoclonal antibody PUMA 4 (antibody, V domains shown)
VH: EVKLEESGGGLVQPGGSMKLSCVASGFTFSNYWMNWVRQPPEKGLEWVAEIRLNSNNYATHYAESVKGKFTISRDDSKSSVYLQMNDLRAEDTGIYYCTRNWDFAWFDSWGQGTLVTVSA
VL: DIVMTQSHKFMSTSVGDRVSITCKASQDVSTVVAWYQQKPGQSPKLLIYWASTRHTGVPDRFTGSGSGTDYTLTISSVQAEDLALYYCQQHYTTPFTFGSGTKLEIK
notes: as for B1
[7]
  binding result: no binding

From patent US10253109 (BLOODWORKS, dated 2019)
